Source: patent US20100287625A1, “VEGF VARIANTS” (UNIVERSITE DE LIEGE, priority 2006, published 2010)

Tests used:
[1] = molecular target: plasmin (Homo sapiens, UniProt P00747); assay: Degradation of recombinant VEGF by plasmin, western blotting; assay type: in vitro ADME; settings: 20 ng reVEGF, plasmin 0.04 to 0.32 units/ml, 4 hours
Procedure: (§1) Recombinant VEGF165, VEGF121 or VEGF111 were produced in HEK293 cells. […] The figure depicts the percentage of degradation of each VEGF by comparison with untreated samples.
To facilitate the analysis of the electrophoretic patterns they were further treated with PNGase as described above and the products of the reactions were analysed by western blotting. […] FIG. 6A depicts the percentage of degradation of each VEGF by comparison with untreated samples.

[2] = Degradation of recombinant VEGF by chronic wound fluid, western blotting; assay type: in vitro ADME; settings: for susceptibility to proteolytic degradation by plasmin and fluids from chronic ulcers: summary statement
Procedure: (§2) FIG. 7: VEGF111 is resistant to degradation by fluids collected from chronic wound. A: Conditioned media containing 20 ng of recombinant VEGF as produced above were treated with chronic wound fluid collected in one patient (20 μl at 37° C.) for indicated times and analysed by western blotting using anti-VEGF antibodies. B: HUVEC were treated with recombinant VEGF111, VEGF121 or VEGF165 produced in HEK293 cells, or with commercially available VEGF165 or the carrier alone, untreated or treated with fluids from chronic wounds (20 μl at 37° C. for 24 hours), and cell multiplication was measured by incorporation of ^3H-thymidine.
Conditioned media containing 20 ng of recombinant VEGF as produced above were treated with chronic wound fluid collected in one patient (20 μl at 37° C.) for indicated times and analysed by western blotting using anti-VEGF antibodies (FIG. 7A). […] FIG. 7B depicts the effect of treatment with chronic wound fluids on the mitogenic activity of the recombinants VEGF on HUVEC.

[3] = test system: HUVEC; assay: Mitogenic activity on HUVEC of VEGF pre-treated with plasmin or chronic wound fluids (3H-thymidine incorporation); assay type: cell-based, human; settings: summary statement, FIG. 6B, 7B
Procedure: as §1, §2
15000 HUVEC were seeded in gelatin-coated wells of 24 multiwells dishes in the presence of FCS. After three hours, the medium was replaced by fresh medium containing or not VEGF and renewed every two days. Cells were collected at various times and the DNA was measured by fluorimetry on a SpectraMax Gemini XS apparatus (Molecular Devices, England) after labeling with bis-benzimide. In some experiments, ^3H-thymidine (1 μM, 2.5 Ci/mol, NEN, Wellesley, Mass., USA) was added to cell cultures at day two and the trichloracetic acid-precipitable radioactivity was measured after 18 hours.

[4] = test system: ERK1/2; assay: Activation of ERK1/2 signalling in HUVEC, western blotting; assay type: cell-based, human; settings: HUVEC starved overnight, treated 5 min
Procedure: (§3) FIG. 4: VEGF111 is biologically active in vitro. A and B: VEGF111 activates VEGF-R2 (A) and ERK1/2 (B) in HUVEC. HUVEC were treated with HEK293 conditioned mediums containing VEGF111, VEGF121 or VEGF165, commercially available recombinant VEGF165 produced in bacteria (cVEGF) (20 ng/ml each) or fetal calf serum (FCS, 10%) for 5 minutes. Untreated cells (−) or cells treated with conditioned medium of control HEK293 cells (CM) served as control. Total and phosphorylated VEGF-R2 and ERK1/2 were measured by western blotting. C: VEGF111 promotes proliferation of HUVEC. HUVEC were treated with HEK293 conditioned mediums containing VEGF111(black circles), VEGF121 (open triangles) or VEGF165 (black triangles) (10 ng/ml) or conditioned medium from control HEK293 cells (open circles). The DNA was measured in triplicate wells harvested at increasing time of treatment. D: representative microphotograph of -embryoid bodies after immunofluorescent labeling of CD31 as marker of vasculature. Bar: […]. E: A number of microphotographs (of 6 embryoid bodies from 3 independent experiments for each treatment) were taken at random and analyzed by 5 investigators not aware of the treatments, and a score (from 0 to 3, where 0 indicates lack of vascular labeling, and 3 maximum labeling) was given to each sample. F: CD31 mRNA level was measured in embryoid bodies (10 samples in 3 independent experiment for each group) as described in Material and Methods. Statistical analysis was performed using the homoscedastic Student T test. *: p<0.05; **: p<0.01; ***: p<0.001
The proteins were migrated onto polyacrylamide gels and transferred onto PVDF transfer membranes (NEN, Boston, Mass.) by electroblotting. The membranes were blocked by non-fat dry milk (3% in PBS-tween buffer) and probed with first and horseradish peroxidase-conjugated secondary antibodies. Signals were detected by chemiluminescence using a ECL Western Blotting Analysis system (Amersham, Little Chalfont, England) and X-ray film exposure and quantified using a Fluor-S MultiImager (BioRad, Hercules, Calif.).
VEGF induces a number of effects in endothelial cells, including autophosphorylation of its receptors, activation of the ERK1/2 MAPkinases pathways, induction of calcium transients and increased proliferation. The in vitro effects of recombinants VEGFs on HUVEC were compared. HUVEC were starved overnight and treated for five min. with reVEGFs. […] Conditioned medium from HEK293 cells transfected with the empty vector had no effect. To further confirm the biological activity of VEGF111 the activation of ERK1/2 signalling pathways was investigated by western blotting using monoclonal phospho-specific antibodies. HUVEC were starved overnight and treated with the three reVEGF isoforms, as well as rbVEGF165, for 5 min. […]

[5] = test system: HUVEC; assay: Intracellular calcium transients in HUVEC (Fluo3, confocal microscopy); assay type: cell-based, human; settings: conditioned medium with 10 ng VEGF, control medium about 15%
Procedure: HUVEC were plated for 18 hours in MCDB-131 medium containing 20% FCS in borosilicate culture chambers (Lab-Tek®, Nunc, Rochester N.Y.) coated with gelatin, rinsed with serum-free medium, incubated with the fluorophore Fluo3-AM (10 μM, Molecular Probes, Eugene, Oreg.) in serum-free medium for two hours and washed. The observation of the fluorescence emitted by the Fluo3-labeled cells started 5 minutes after the last washing. Microscope fields randomly selected were examined by a confocal microscope (Meridian, Akemos, Mich.). The Fluo3-loaded cells were excited by an Argon LASER at 488 nm and the emitted fluorescence recorded at 530 nm in each cell of the field by real time imaging. Image processing and data computing were performed using the Meridian software. The intensity of the emitted fluorescence was recorded every second during 4 minutes. As the overall fluorescence intensity varied from cell to cell, the level of fluorescence of each cell at the beginning of the recording was normalised to one arbitrary unit. The baseline of resting cells spontaneously oscillated by ±10% around the level of the first image acquisition. After a 20 second period of baseline recording, 10-20 μL of conditioned medium from HEK293 cells expressing or not VEGF111, VEGF121 or VEGF165 (10 ng) were added gently on the cells under microscopic examination. A 20% rise above the baseline was considered as a significant calcium rise and the cell regarded as responsive. The results were expressed as the percentage of responding cells.
The induction of calcium transients by the various reVEGFs was investigated on HUVEC by real-time fluorescent microscopy as described. As the calcium concentration in resting cells spontaneously varied by about 10% around the baseline, cells were defined as responsive when the treatments induced a peak of calcium at least 20% above the baseline. HUVEC were treated with conditioned mediums from control HEK293 cells or cells expressing VEGF111, VEGF121 and VEGF165.

[6] = test system: HUVEC; assay: HUVEC proliferation (DNA measurement); assay type: cell-based, human; settings: 10 ng/ml, medium renewed every two days
Procedure: as §3
15000 HUVEC were seeded in gelatin-coated wells of 24 multiwells dishes in the presence of FCS. […] Cells were collected at various times and the DNA was measured by fluorimetry on a SpectraMax Gemini XS apparatus (Molecular Devices, England) after labeling with bis-benzimide. In some experiments, ^3H-thymidine (1 μM, 2.5 Ci/mol, NEN, Wellesley, Mass., USA) was added to cell cultures at day two and the trichloracetic acid-precipitable radioactivity was measured after 18 hours. […]

[7] = test system: recombinant VEGF111 produced in HEK293 cells
[8] = molecular target: recombinant VEGF121 produced in HEK293 cells (UniProt P15692)
[9] = molecular target: recombinant VEGF165 produced in HEK293 cells (UniProt P15692)

Sequence of plasmin (P00747 20-580): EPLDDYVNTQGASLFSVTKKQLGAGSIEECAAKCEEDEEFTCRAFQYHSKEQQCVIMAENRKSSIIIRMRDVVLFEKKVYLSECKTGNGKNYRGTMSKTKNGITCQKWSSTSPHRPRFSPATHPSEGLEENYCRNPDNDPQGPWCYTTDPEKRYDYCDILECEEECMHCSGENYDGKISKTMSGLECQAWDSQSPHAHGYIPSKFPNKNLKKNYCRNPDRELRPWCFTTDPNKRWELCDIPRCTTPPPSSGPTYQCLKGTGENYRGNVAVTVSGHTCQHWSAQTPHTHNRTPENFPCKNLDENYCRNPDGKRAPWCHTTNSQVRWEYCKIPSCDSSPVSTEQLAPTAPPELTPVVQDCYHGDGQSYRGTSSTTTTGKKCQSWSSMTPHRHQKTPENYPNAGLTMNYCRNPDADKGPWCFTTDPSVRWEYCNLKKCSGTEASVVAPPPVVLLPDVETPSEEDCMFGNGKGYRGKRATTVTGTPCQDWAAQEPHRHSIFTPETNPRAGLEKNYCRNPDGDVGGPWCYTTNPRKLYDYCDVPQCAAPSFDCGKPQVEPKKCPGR
Sequence of plasmin (P00747 581-810): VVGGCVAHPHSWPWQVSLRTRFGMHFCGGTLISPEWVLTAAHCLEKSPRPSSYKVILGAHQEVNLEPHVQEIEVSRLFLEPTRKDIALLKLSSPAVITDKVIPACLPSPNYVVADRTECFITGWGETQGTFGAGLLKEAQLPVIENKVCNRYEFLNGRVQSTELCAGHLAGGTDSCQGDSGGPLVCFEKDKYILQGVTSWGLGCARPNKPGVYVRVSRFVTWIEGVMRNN
Sequence of plasmin (Homo sapiens, UniProt P00747) (P00747 581-810 limits assumed, species assumed): as the sequence (P00747 581-810) above
Sequence of plasmin (Homo sapiens, UniProt P00747) (P00747 97-580 partner limits assumed, species assumed): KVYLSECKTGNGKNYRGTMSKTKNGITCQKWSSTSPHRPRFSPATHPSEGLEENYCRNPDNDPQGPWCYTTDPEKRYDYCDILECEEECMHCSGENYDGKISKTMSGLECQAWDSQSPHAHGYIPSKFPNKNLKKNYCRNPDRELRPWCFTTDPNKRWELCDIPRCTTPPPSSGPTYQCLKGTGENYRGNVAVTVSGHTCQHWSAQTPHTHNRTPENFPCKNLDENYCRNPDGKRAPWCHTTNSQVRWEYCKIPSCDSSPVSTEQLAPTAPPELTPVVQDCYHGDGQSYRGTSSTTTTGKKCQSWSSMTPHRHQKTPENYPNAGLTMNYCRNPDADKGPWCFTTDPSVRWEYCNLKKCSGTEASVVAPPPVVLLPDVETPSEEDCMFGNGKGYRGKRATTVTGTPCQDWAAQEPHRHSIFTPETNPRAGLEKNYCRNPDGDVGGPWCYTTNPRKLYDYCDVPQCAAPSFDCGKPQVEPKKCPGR

Molecule	degradation by plasmin (western blotting) [1]	susceptibility to proteolytic degradation by plasmin and fluids from chronic ulcers [2]	effect of treatment by plasmin or fluids from non-healing wounds on the activity of the VEGF [3]	phosphorylation of ERK1/2 [4]	percentage of responding cells (calcium transients, peak at least 20% above baseline) [5]	increase of proliferation rate as compared to control conditioned medium [6]	dose of plasmin that cleaves VEGF by 50% [7]	dose of plasmin that cleaves VEGF by 50% [8]	dose of plasmin that cleaves VEGF by 50% [9]	dose of plasmin that cleaves VEGF by 50% ([1]; 37° C.)	degradation by chronic wound fluid ([2]; 20 ng VEGF, 20 μl wound fluid of one patient, 37° C., after 24 hrs)
VEGF165: known VEGF isoform, recombinant, produced in HEK293 cells [reference compound]	progressively degraded	susceptible	reduces or suppresses	induced	70%	2.5 fold					
plasmin							above 0.32 U/ml for VEGF111	comprised between 0.05 and 0.07 U/ml for VEGF165 and VEGF121	comprised between 0.05 and 0.07 U/ml for VEGF165 and VEGF121		
VEGF111: new VEGF isoform lacking exons 5 to 7, SEQ ID NO:2; recombinant, produced in HEK293 cells (protein, listed as Homo sapiens) MNFLLSWVHWSLALLLYLHHAKWSQAAPMAEGGGQNHHEVVKFMDVYQRSYCHPIETLVDIFQEYPDEIEYIFKPSCVPLMRCGGCCNDEGLECVPTEESNITMQIMRIKPHQGQHIGEMSFLQHNKCECRPCGPCSERRKHLFVQDPQTCKCSCKNTDSRCKARQLELNERTCRCDKPRR	unaffected		does not affect	induced	70%	2 fold				above 0.32 U/ml	no detectable degradation
rbVEGF165: commercially available recombinant VEGF165 produced in bacteria (protein) APMAEGGGQNHHEVVKFMDVYQRSYCHPIETLVDIFQEYPDEIEYIFKPSCVPLMRCGGCCNDEGLECVPTEESNITMQIMRIKPHQGQHIGEMSFLQHNKCECRPKKDRARQENPCGPCSERRKHLFVQDPQTCKCSCKNTDSRCKARQLELNERTCRCDKPRR				induced							
VEGF121: known VEGF isoform, recombinant, produced in HEK293 cells (protein) APMAEGGGQNHHEVVKFMDVYQRSYCHPIETLVDIFQEYPDEIEYIFKPSCVPLMRCGGCCNDEGLECVPTEESNITMQIMRIKPHQGQHIGEMSFLQHNKCECRPKKDRARQEKCDKPRR	progressively degraded	susceptible	reduces or suppresses	induced	70%	2 fold					
